Measured values from PMC9585082, “Structural insight into the ligand binding mechanism of aryl hydrocarbon receptor” (Nature Communications, 2022).

T1: 6xHis-SUMO-tagged dAHR PAS-B Y310A (Drosophila melanogaster, UniProt O61543 264-381, Y310A)
T1 construct: Aryl hydrocarbon receptor homolog spineless (dAHR), Drosophila melanogaster, UniProt O61543, PAS-B domain aa 264-381; source: E. coli Rosetta (DE3), purified as the WT protein; fusion tag retained
T1 sequence (looked up): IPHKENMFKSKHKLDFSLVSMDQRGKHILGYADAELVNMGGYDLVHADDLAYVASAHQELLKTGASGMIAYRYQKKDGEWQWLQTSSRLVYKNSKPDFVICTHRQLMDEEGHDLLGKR

T2: 6xHis-SUMO-tagged dAHR PAS-B Y305A (Drosophila melanogaster, UniProt O61543 264-381, Y305A)
T2 construct: Aryl hydrocarbon receptor homolog spineless (dAHR), Drosophila melanogaster, UniProt O61543, PAS-B domain aa 264-381; source: E. coli Rosetta (DE3), purified as the WT protein; fusion tag retained
T2 sequence (looked up): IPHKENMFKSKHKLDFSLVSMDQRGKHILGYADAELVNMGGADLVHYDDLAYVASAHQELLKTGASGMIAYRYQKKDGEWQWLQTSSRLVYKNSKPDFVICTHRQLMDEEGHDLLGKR

T3: 6xHis-SUMO-tagged dAHR PAS-B (wild type) (Drosophila melanogaster, UniProt O61543 264-381)
T3 construct: Aryl hydrocarbon receptor homolog spineless (dAHR), Drosophila melanogaster, UniProt O61543, PAS-B domain aa 264-381; The printed name '6xHis-SUMO-dAHR PAS-B' puts the tag first; the end is not otherwise stated; also called 6xHis-SUMO-dAHR PAS-B; WT protein; source: E. coli Rosetta (DE3), purified; fusion tag retained
T3 sequence (looked up): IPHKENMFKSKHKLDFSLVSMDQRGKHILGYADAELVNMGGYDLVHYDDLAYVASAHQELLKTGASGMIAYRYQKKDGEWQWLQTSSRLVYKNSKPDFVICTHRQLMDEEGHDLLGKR

T4: 6xHis-tagged dAHR PAS-B, Red-labeled (Drosophila melanogaster, UniProt O61543 264-381, labeled with the MO Red-Tris-NTA protein labeling kit)
T4 construct: Aryl hydrocarbon receptor homolog spineless (dAHR), Drosophila melanogaster, UniProt O61543, PAS-B domain aa 264-381; the only His-tagged dAHR PAS-B construct it describes is the 6xHis-SUMO fusion (pET-28s), so SUMO may also have been present; also called Red-labeled dAHR PAS-B; source: purified; E. coli Rosetta (DE3) is the host named for pET-28s-dAHR PAS-B
T4 sequence (looked up): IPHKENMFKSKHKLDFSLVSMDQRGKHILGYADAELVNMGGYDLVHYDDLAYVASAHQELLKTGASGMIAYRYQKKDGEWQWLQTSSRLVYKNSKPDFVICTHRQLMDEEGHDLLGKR

B1: GST-tagged mARNT PAS-B (domain or fragment)
chain: not shown
notes: Aryl hydrocarbon receptor nuclear translocator (ARNT), mouse, PAS-B domain aa 360-465; GST retained for ELISA; also called GST-fused recombinant mARNT PAS-B; source: pGEX-6P-1 construct, purified
B2: mouse ARNT PAS-B domain (aa 360-465), fusion tag removed (domain or fragment)
chain: not shown
notes: Aryl hydrocarbon receptor nuclear translocator (ARNT), mouse, PAS-B domain aa 360-465; Subcloned into pET-28s 'similarly' to the AHR PAS-B domains; tag removed with ULP1; also called mARNT PAS-B

What was measured:
Settings in all cases: both partners purified
[1] = biological target: T1, 6xHis-SUMO-tagged dAHR PAS-B Y310A; test: ELISA; 100 nM 6xHis-SUMO-dAHR PAS-B (WT or mutants) coated on plates; GST-mARNT PAS-B 0.004-10 µM added, 1 h room temperature; anti-GST detection; four-parameter 'log(agonist) vs response' fit
[2] = biological target: T2, 6xHis-SUMO-tagged dAHR PAS-B Y305A; test: as above
[3] = biological target: T3, 6xHis-SUMO-tagged dAHR PAS-B (wild type); test: as above
[4] = biological target: T4, 6xHis-tagged dAHR PAS-B, Red-labeled; test: MST; 50 nM Red-labeled 6xHis-dAHR PAS-B; mARNT PAS-B 100 µM to 3 nM; PBS, 0.05% Tween-20, 2.5% DMSO, 0.5 mM TCEP; without αNF
[5] = biological target: T4, 6xHis-tagged dAHR PAS-B, Red-labeled; test: MST; 50 nM Red-labeled 6xHis-dAHR PAS-B; mARNT PAS-B 100 µM to 3 nM; PBS, 0.05% Tween-20, 2.5% DMSO, 0.5 mM TCEP; with 1 µM αNF

Kd [1] [nM] | Kd [2] [nM] | Kd [3] [nM] | Kd [4] [nM] | Kd [5] [nM] | Binder
500 | 1800 | ~380 | – | – | B1
– | – | – | 300 | ~250 | B2
